From the supplement of paper PMC9112550, “Optimization of the antimicrobial peptide Bac7 by deep mutational scanning” (BMC Biology, 2022)

test system: Escherichia coli TOP10; assay: shrunken log2 fold change of peptide-encoding DNA abundance (4.5 h post-induction vs induction); higher = less antimicrobial activity (less host growth inhibition); conditions: time post-induction: 4.5 h; library: site-saturation at positions 5, 18, 19, 20
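Also: peptides expressed intracellularly from a pBAD plasmid library in pooled LB shake-flask culture, induced with 0.3% L-arabinose, DNA abundance read by NGS, three biological replicates, DESeq2 with apeglm shrinkage.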

Row | Sequence | shrunken log2 fold change
1 | RRIRVRPPRLPRPRPRPSCHPRP | 0.292
2 | RRIRYRPPRLPRPRPRPCNRPRP | -0.182
3 | RRIRPRPPRLPRPRPRPLYDPRP | 2.73
4 | RRIRKRPPRLPRPRPRPLTDPRP | -0.0168
5 | RRIRCRPPRLPRPRPRPLNVPRP | -0.186
6 | RRIRLRPPRLPRPRPRPFMTPRP | -0.824
7 | RRIRVRPPRLPRPRPRPHMFPRP | -0.199
8 | RRIRGRPPRLPRPRPRPHMFPRP | 0.445
9 | RRIRNRPPRLPRPRPRPIHFPRP | -0.263
10 | RRIRTRPPRLPRPRPRPKMHPRP | -0.0762
11 | RRIRCRPPRLPRPRPRPVKRPRP | 0.0344
12 | RRIRPRPPRLPRPRPRPRWWPRP | 0.0553
13 | RRIRHRPPRLPRPRPRPLFPPRP | -0.102
14 | RRIRHRPPRLPRPRPRPTAGPRP | -0.0268
15 | RRIRMRPPRLPRPRPRPMIYPRP | -0.178
16 | RRIRGRPPRLPRPRPRPHKKPRP | -0.108
17 | RRIRRRPPRLPRPRPRPIPSPRP | 0.247
18 | RRIRARPPRLPRPRPRPMWLPRP | 0.0028
19 | RRIRERPPRLPRPRPRPANNPRP | -0.598
20 | RRIRKRPPRLPRPRPRPICDPRP | 0.0999
21 | RRIRERPPRLPRPRPRPANWPRP | 0.173
22 | RRIRMRPPRLPRPRPRPWWLPRP | 0.0657
23 | RRIRDRPPRLPRPRPRPGFAPRP | 0.992
24 | RRIRYRPPRLPRPRPRPLKKPRP | -0.339
25 | RRIRIRPPRLPRPRPRPKKRPRP | -0.169

Row | Sequence | shrunken log2 fold change
26 | RRIRRRPPRLPRPRPRPKDYPRP | -0.485
27 | RRIRSRPPRLPRPRPRPQGIPRP | 0.0897
28 | RRIRVRPPRLPRPRPRPMIMPRP | -0.126
29 | RRIRIRPPRLPRPRPRPEFEPRP | -0.0399
30 | RRIRTRPPRLPRPRPRPFIAPRP | -0.589
31 | RRIRSRPPRLPRPRPRPFTMPRP | -0.811
32 | RRIRHRPPRLPRPRPRPRIKPRP | -0.0701
33 | RRIRVRPPRLPRPRPRPVTHPRP | -0.277
34 | RRIRNRPPRLPRPRPRPRGEPRP | -0.029
35 | RRIRARPPRLPRPRPRPKKPPRP | 0.0922
36 | RRIRLRPPRLPRPRPRPFRDPRP | 0.00463
37 | RRIRTRPPRLPRPRPRPMARPRP | 0.193
38 | RRIRFRPPRLPRPRPRPASNPRP | -0.479
39 | RRIRARPPRLPRPRPRPECMPRP | 1.41
40 | RRIRHRPPRLPRPRPRPVGLPRP | 0.119
41 | RRIRKRPPRLPRPRPRPLPIPRP | 0.143
42 | RRIRIRPPRLPRPRPRPMRHPRP | 0.158
43 | RRIRLRPPRLPRPRPRPPWAPRP | 0.632
44 | RRIRTRPPRLPRPRPRPVQHPRP | -0.217
45 | RRIRQRPPRLPRPRPRPTSWPRP | -0.00172
46 | RRIRFRPPRLPRPRPRPTDHPRP | -0.323
47 | RRIRCRPPRLPRPRPRPSVCPRP | 0.0114
48 | RRIRSRPPRLPRPRPRPVHEPRP | -0.185
49 | RRIRMRPPRLPRPRPRPHMNPRP | -0.0129
50 | RRIRKRPPRLPRPRPRPWYPPRP | 0.00168

Row | Sequence | shrunken log2 fold change
51 | RRIRWRPPRLPRPRPRPGGWPRP | 0.851
52 | RRIRCRPPRLPRPRPRPITMPRP | -0.309
53 | RRIRYRPPRLPRPRPRPVPDPRP | -0.0838
54 | RRIRQRPPRLPRPRPRPCPPPRP | 0.00708
55 | RRIRNRPPRLPRPRPRPWFCPRP | -0.861
56 | RRIRDRPPRLPRPRPRPELFPRP | 0.184
57 | RRIRKRPPRLPRPRPRPHMGPRP | -0.0935
58 | RRIRARPPRLPRPRPRPFEDPRP | 0.0795
59 | RRIRRRPPRLPRPRPRPIEEPRP | 0.0745
60 | RRIRERPPRLPRPRPRPNMYPRP | -0.976
61 | RRIRPRPPRLPRPRPRPVSSPRP | -0.0455
62 | RRIRDRPPRLPRPRPRPFSTPRP | -0.0877
63 | RRIRLRPPRLPRPRPRPNRFPRP | -0.404
64 | RRIRRRPPRLPRPRPRPYSWPRP | -0.275
65 | RRIRARPPRLPRPRPRPWQPPRP | 0.0351
66 | RRIRCRPPRLPRPRPRPDIFPRP | -0.262
67 | RRIRERPPRLPRPRPRPYCKPRP | 0.0936
68 | RRIRYRPPRLPRPRPRPGEVPRP | -0.0129
69 | RRIRFRPPRLPRPRPRPTSWPRP | 0.3
70 | RRIRYRPPRLPRPRPRPKRPPRP | 0.45
71 | RRIRIRPPRLPRPRPRPPITPRP | -0.366
72 | RRIRPRPPRLPRPRPRPNCMPRP | -0.16
73 | RRIRRRPPRLPRPRPRPSWWPRP | 0.327
74 | RRIRYRPPRLPRPRPRPCGCPRP | -0.0582
75 | RRIRMRPPRLPRPRPRPRNHPRP | 0.263

Row | Sequence | shrunken log2 fold change
76 | RRIRSRPPRLPRPRPRPCYWPRP | -0.121
77 | RRIRKRPPRLPRPRPRPYESPRP | 0.0419
78 | RRIRHRPPRLPRPRPRPQGQPRP | 0.043
79 | RRIRRRPPRLPRPRPRPADCPRP | 0.0869
80 | RRIRFRPPRLPRPRPRPRYHPRP | -0.295
81 | RRIRYRPPRLPRPRPRPEWLPRP | 0.00963
82 | RRIRQRPPRLPRPRPRPINRPRP | -0.341
83 | RRIRDRPPRLPRPRPRPLREPRP | 0.714
84 | RRIRWRPPRLPRPRPRPLLIPRP | 0.0213
85 | RRIRFRPPRLPRPRPRPLQDPRP | 0.118
86 | RRIRIRPPRLPRPRPRPYTVPRP | -1.32
87 | RRIRIRPPRLPRPRPRPEGPPRP | -0.0796
88 | RRIRLRPPRLPRPRPRPCTLPRP | -0.328
89 | RRIRDRPPRLPRPRPRPAECPRP | 0.232
90 | RRIRYRPPRLPRPRPRPLHDPRP | -0.74
91 | RRIRGRPPRLPRPRPRPHHLPRP | 0.374
92 | RRIRERPPRLPRPRPRPFLEPRP | -0.436
93 | RRIRFRPPRLPRPRPRPSPEPRP | 0.24
94 | RRIRCRPPRLPRPRPRPVIIPRP | -1.28
95 | RRIRSRPPRLPRPRPRPCFSPRP | -0.378
96 | RRIRTRPPRLPRPRPRPYVYPRP | -1.18
97 | RRIRNRPPRLPRPRPRPMVHPRP | -0.00783
98 | RRIRSRPPRLPRPRPRPMPKPRP | 0.0763
99 | RRIRYRPPRLPRPRPRPMHTPRP | -0.254
100 | RRIRFRPPRLPRPRPRPPEFPRP | 0.12

Row | Sequence | shrunken log2 fold change
101 | RRIRHRPPRLPRPRPRPNYVPRP | -0.0206
102 | RRIRSRPPRLPRPRPRPIHFPRP | -0.106
103 | RRIRNRPPRLPRPRPRPTGSPRP | 0.1
104 | RRIRNRPPRLPRPRPRPFARPRP | -0.113
105 | RRIRQRPPRLPRPRPRPYTLPRP | 0.0232
106 | RRIRMRPPRLPRPRPRPEPEPRP | 2.64
107 | RRIRDRPPRLPRPRPRPGHCPRP | -0.0141
108 | RRIRDRPPRLPRPRPRPTCVPRP | 0.346
109 | RRIRARPPRLPRPRPRPMEIPRP | 0.146
110 | RRIRFRPPRLPRPRPRPLLLPRP | -0.443
111 | RRIRRRPPRLPRPRPRPFVKPRP | -0.373
112 | RRIRPRPPRLPRPRPRPEHHPRP | -0.0616
113 | RRIRYRPPRLPRPRPRPDFRPRP | 0.129
114 | RRIRLRPPRLPRPRPRPLAQPRP | 0.73
115 | RRIRCRPPRLPRPRPRPDDPPRP | 0.0647
116 | RRIRRRPPRLPRPRPRPTLDPRP | 0.809
117 | RRIRNRPPRLPRPRPRPWPEPRP | -0.0309
118 | RRIRVRPPRLPRPRPRPNDHPRP | -0.302
119 | RRIRKRPPRLPRPRPRPCFEPRP | 0.336
120 | RRIRDRPPRLPRPRPRPPSKPRP | 0.0904
121 | RRIRHRPPRLPRPRPRPKAGPRP | -0.115
122 | RRIRCRPPRLPRPRPRPILRPRP | 0.103
123 | RRIRHRPPRLPRPRPRPWWIPRP | -0.177
124 | RRIRCRPPRLPRPRPRPKMRPRP | -0.00909
125 | RRIRRRPPRLPRPRPRPSLHPRP | 0.114

Row | Sequence | shrunken log2 fold change
126 | RRIRKRPPRLPRPRPRPYFGPRP | -0.711
127 | RRIRRRPPRLPRPRPRPTPMPRP | 1.08
128 | RRIRARPPRLPRPRPRPFCQPRP | -0.0229
129 | RRIRPRPPRLPRPRPRPPPHPRP | 0.657
130 | RRIRHRPPRLPRPRPRPMRRPRP | 0.00585
131 | RRIRYRPPRLPRPRPRPVILPRP | -0.0444
132 | RRIRMRPPRLPRPRPRPWIGPRP | -0.0941
133 | RRIRCRPPRLPRPRPRPAIKPRP | -0.738
134 | RRIRCRPPRLPRPRPRPFCYPRP | -0.733
135 | RRIRARPPRLPRPRPRPEGSPRP | 0.805
136 | RRIRRRPPRLPRPRPRPMLMPRP | 0.122
137 | RRIRVRPPRLPRPRPRPLCSPRP | -0.0335
138 | RRIRFRPPRLPRPRPRPSVIPRP | -0.339
139 | RRIRDRPPRLPRPRPRPEFPPRP | -0.00168
140 | RRIRSRPPRLPRPRPRPDDWPRP | 0.155
141 | RRIRIRPPRLPRPRPRPPWQPRP | 1.02
142 | RRIRIRPPRLPRPRPRPYIFPRP | -0.425
143 | RRIRNRPPRLPRPRPRPYGAPRP | -0.397
144 | RRIRPRPPRLPRPRPRPADEPRP | 0.0954
145 | RRIRWRPPRLPRPRPRPHTVPRP | 0.00981
146 | RRIRMRPPRLPRPRPRPYYLPRP | -0.326
147 | RRIRHRPPRLPRPRPRPRGEPRP | -0.0677
148 | RRIRYRPPRLPRPRPRPDDSPRP | 0.00262
149 | RRIRDRPPRLPRPRPRPTGAPRP | 1.37
150 | RRIRTRPPRLPRPRPRPYFGPRP | -0.589
